Target: T1, NLRP1-FLAG (human, UniProt Q9C000-1 1-1473)
T1 construct: NLRP1, human, UniProt Q9C000-1, full length; The host of the purified protein is told only as a mammalian expression system; also called full-length NLRP1; Flag-tagged NLRP1; source: HEK 293T, transiently transfected, in lysate; also purified using mammalian protein expression system
T1 sequence (looked up): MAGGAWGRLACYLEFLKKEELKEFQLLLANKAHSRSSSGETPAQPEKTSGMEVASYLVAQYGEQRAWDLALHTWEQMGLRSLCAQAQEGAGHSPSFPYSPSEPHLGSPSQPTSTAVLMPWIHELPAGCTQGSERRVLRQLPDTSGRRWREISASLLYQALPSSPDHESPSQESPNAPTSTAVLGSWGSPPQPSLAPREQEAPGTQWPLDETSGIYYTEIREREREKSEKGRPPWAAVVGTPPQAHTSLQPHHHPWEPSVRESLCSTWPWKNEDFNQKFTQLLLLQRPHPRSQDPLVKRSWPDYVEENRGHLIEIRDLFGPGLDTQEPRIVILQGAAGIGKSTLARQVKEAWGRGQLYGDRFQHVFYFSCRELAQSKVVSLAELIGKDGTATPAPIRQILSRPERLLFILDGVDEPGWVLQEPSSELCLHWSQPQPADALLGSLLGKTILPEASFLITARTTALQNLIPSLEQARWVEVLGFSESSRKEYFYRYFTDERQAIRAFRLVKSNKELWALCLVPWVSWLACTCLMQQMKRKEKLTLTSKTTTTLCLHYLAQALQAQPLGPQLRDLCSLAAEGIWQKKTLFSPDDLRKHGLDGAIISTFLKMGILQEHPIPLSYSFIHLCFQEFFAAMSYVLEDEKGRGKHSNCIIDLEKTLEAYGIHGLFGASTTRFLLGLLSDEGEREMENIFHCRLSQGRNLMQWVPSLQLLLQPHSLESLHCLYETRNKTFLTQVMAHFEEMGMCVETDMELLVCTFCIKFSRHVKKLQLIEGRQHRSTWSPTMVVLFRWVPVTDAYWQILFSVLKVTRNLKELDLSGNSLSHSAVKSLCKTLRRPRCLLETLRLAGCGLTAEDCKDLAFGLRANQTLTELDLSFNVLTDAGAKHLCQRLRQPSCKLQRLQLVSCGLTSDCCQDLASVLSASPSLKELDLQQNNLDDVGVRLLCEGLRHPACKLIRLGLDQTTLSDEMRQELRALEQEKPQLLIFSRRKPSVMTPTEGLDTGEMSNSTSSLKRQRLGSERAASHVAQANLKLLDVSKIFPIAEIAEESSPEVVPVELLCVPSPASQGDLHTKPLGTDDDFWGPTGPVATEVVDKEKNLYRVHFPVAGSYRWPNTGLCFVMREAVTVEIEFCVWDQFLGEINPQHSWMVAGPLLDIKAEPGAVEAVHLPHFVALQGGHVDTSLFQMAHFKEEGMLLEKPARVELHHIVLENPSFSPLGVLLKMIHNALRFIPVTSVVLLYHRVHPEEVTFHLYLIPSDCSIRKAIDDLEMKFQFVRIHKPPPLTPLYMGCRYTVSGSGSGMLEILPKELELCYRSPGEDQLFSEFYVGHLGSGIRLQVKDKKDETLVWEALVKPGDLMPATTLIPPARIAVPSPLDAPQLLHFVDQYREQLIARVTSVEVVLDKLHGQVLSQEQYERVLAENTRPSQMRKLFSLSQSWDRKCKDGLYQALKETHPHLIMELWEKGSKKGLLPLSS
Test: co-IP; HEK 293T cells transiently co-transfected, 28 hours; lysate (20 mM Tris-HCl pH 7.5, 100 mM KCl, 5 mM MgCl2, 0.3% NP-40); precipitation by the Strep tag of CARD8-T60-Strep (anti-Strep; Strep-Tactin gel) overnight at 4 °C; immunoblotting
Conditions: partners not purified

binding result: binds
B1: CARD8-T60-Strep (natural protein, human, UniProt Q9Y2G2-5 1-537, looked up)
chain: MEKKECPEKSSSSEEELPRRDSGSSRNIDASKLIRLQGSRKLLVDNSIRELQYTKTGIFFQAEACVTNDTVYRELPCVSETLCDISHFFQEDDETEAEPLLFRAVPECQLSGGDIPSVSEEQESSEGQDSGDICSEENQIVSSYASKVCFEIEEDYKNRQFLGPEGNVDVELIDKSTNRYSVWFPTAGWYLWSATGLGFLVRDEVTVTIAFGSWSQHLALDLQHHEQWLVGGPLFDVTAEPEEAVAEIHLPHFISLQAGEVDVSWFLVAHFKNEGMVLEHPARVEPFYAVLESPSFSLMGILLRIASGTRLSIPITSNTLIYYHPHPEDIKFHLYLVPSDALLTKAIDDEEDRFHGVRLQTSPPMEPLNFGSSYIVSNSANLKVMPKELKLSYRSPGEIQHFSKFYAGQMKEPIQLEITEKRHGTLVWDTEVKPVDLQLVAASAPPPFSGAAFVKENHRQLQARMGDLKGVLDDLQDNEVLTENEKELVEQEKTRQSKNEALLSMVEKKGDLALDVLFRSISERDPYLVSYLRQQNL
notes: CARD8, T60 isoform, human, UniProt Q9Y2G2-5, full length; The host of the purified protein is told only as a mammalian expression system; also called CARD8-Strep; T60 isoform of CARD8; source: HEK 293T, transiently transfected, in lysate; also purified using mammalian protein expression system

Source: publication PMC9679424, “The CARD8 T60 variant associates with NLRP1 and negatively regulates its activation” (Frontiers in Immunology, 2022)
